This note sets out measurements from patent US20180155451A1 (published 2018).

Like-named read-outs stand apart in the source and are kept apart here.

In general, Kd refers to the equilibrium constant for the complex coming apart. Low values mean higher affinity, high ones lower affinity.

Assay in all cases: SPR (Biacore), antibody captured on chip, FcgR extracellular domain as analyte
The target of one assay is T1, FcgRIa (human, UniProt P12314 16-292).
T1 construct: extracellular domain; Expressed in FreeStyle293 cells and purified; used as analyte in Biacore; also called FcγRIa; FcγRI; not shown: His tag attached to the C terminus

Assay [1] has as its target T2, FcgRIIa R (human, UniProt P12318 34-217).
T2 construct: extracellular domain; also called FcγRIIa R; FcγRIIa type R; not shown: His tag attached to the C terminus
T2 sequence (looked up): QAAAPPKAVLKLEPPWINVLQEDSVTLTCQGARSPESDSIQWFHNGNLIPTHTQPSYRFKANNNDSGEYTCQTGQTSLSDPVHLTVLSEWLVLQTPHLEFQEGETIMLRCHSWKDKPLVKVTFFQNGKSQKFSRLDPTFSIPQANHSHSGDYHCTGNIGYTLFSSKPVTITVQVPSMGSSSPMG

A further assay concerns the target T3, FcgRIIa H (human, UniProt P12318 34-217).
T3 construct: extracellular domain; also called FcγRIIa H; FcγRIIa type H; not shown: His tag attached to the C terminus
T3 sequence (looked up): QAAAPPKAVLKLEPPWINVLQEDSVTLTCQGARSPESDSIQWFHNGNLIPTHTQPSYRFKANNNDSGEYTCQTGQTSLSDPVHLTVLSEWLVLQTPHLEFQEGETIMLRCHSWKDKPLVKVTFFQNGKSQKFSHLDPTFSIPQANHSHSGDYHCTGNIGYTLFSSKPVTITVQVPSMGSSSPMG

The target of a further assay is T4, FcgRIIb (human, UniProt P31994 43-217).
T4 construct: extracellular domain; Expressed in FreeStyle293 cells and purified; used as analyte in Biacore; also called FcγRIIb; CD32B; not shown: His tag attached to the C terminus
T4 sequence (looked up): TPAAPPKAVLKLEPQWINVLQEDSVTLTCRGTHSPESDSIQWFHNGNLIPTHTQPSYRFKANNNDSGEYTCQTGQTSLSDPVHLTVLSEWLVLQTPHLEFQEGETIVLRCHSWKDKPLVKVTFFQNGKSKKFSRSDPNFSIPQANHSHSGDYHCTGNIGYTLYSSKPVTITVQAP

A further assay deals with T5, FcgRIIIa F (human, UniProt P08637 17-208).
T5 construct: extracellular domain; also called FcγRIIIa F; not shown: His tag attached to the C terminus

The target of the next assay is T6, FcgRIIIa V (human, UniProt P08637 17-208).
T6 construct: extracellular domain; also called FcγRIIIa V; not shown: His tag attached to the C terminus

Assay [2] concerns the target T2, FcgRIIa R. This is another data set of the same source.

T1 sequence (P12314 16-292): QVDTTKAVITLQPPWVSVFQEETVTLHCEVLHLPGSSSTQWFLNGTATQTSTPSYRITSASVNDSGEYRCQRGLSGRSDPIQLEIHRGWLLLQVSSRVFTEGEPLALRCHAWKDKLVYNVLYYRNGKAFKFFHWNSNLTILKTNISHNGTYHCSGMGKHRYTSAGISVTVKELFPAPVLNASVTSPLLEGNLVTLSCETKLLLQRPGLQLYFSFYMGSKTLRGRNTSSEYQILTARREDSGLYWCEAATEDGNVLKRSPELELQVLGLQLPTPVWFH
T6 sequence (P08637 17-208 F176V limits assumed): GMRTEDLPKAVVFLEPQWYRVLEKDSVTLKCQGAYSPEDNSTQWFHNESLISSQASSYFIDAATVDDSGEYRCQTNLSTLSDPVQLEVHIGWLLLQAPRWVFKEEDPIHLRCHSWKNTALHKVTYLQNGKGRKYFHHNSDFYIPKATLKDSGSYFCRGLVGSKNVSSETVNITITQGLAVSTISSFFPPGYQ
T5 sequence (P08637 17-208): as the sequence (P08637 17-208 F176V limits assumed) above, with V160F counted along it

B1: H240-afucosyl_G1d/L73-k0 (antibody, human IgG1, kappa)
heavy: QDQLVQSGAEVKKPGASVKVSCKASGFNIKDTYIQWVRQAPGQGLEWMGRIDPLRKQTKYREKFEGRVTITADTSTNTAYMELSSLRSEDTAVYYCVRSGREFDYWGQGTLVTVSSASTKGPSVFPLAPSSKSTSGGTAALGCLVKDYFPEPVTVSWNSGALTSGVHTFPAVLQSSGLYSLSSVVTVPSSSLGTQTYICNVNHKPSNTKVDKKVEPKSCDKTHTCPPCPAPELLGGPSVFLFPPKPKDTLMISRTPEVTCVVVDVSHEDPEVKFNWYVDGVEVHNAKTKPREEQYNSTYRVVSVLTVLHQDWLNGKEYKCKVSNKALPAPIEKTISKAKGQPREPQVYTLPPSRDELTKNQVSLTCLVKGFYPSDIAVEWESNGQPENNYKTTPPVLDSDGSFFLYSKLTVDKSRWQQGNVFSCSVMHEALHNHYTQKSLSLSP
light: DIQMTQSPSSLSASVGDRVTITCRASQDIHKYIAWYQQKPGQAPRLLIQYTSTLQPGVPSRFSGSGSGTDYTFTISSLQPEDIATYYCLQYEQLRTFGGGTKVEIKRTVAAPSVFIFPPSDEQLKSGTASVVCLLNNFYPREAKVQWKVDNALQSGNSQESVTEQDSKDSTYSLSSTLTLSKADYEKHKVYACEVTHQGLSSPVTKSFNRGEC
modifications: fucose removed from the sugar chain (afucosylated); amino acid sequence same as H240-G1d
notes: Anti-EREG IgG1 obtained by afucosylating H240-G1d/L73-k0; also called afucosylated antibody
As to B1, the Kd in the assay with FcgRIa came out at 0.00043 µM; with FcgRIIa R [1] it was 0.49 µM; with FcgRIIa H, 0.78 µM; with FcgRIIb it was 2.6 µM; in the assay with FcgRIIIa F, 0.079 µM; with FcgRIIIa V it was 0.0069 µM. For the same molecule, the equilibrium dissociation constant (Kd) with FcgRIIa R [2] came to 0.49 µM.
